Consider 8 molecules from patent CN111647076A (UNIV NANJING MEDICAL, dated 2020).

For assay [1], the target named is SARS-Cov-2 spike on lentiviral pseudovirus (SARS-Cov-2, UniProt P0DTC2 14-1273). Briefly: cell-based or functional assay.
In the next assay the target is T1, SARS-Cov-1-RBD-hFc (SARS-Cov-1, UniProt P59594 306-527).
T1 construct: domain: RBD
In words: phage ELISA, antigen coated at 5 μg/ml, anti-M13-HRP.

B1: 4A12-hFc重组蛋白 (Fc fusion)
chain: EVQLLESGGGLVQPGGSLRLSCAASDFAFSSYEMSWVRQAPGKGLEWIGEIHHSGSTYYNPSLKSLVTISRDNSKNTLYLQMNSLRAEDTAVYYCVKDFGHLGQMASWGQGTLVTVSS
Consider B1, for which the “IC50 of pseudovirus infection of ACE2-CHO cells (Luciferase活性)” value (“IC50” below) in assay [1] was 0.19 µg/mL.

B2: 4A12噬菌体 (single-domain antibody 4A12 displayed on phage) (VHH)
VHH: EVQLLESGGGLVQPGGSLRLSCAASDFAFSSYEMSWVRQAPGKGLEWIGEIHHSGSTYYNPSLKSLVTISRDNSKNTLYLQMNSLRAEDTAVYYCVKDFGHLGQMASWGQGTLVTVSS
notes: also called 抗体4A12
Turning to B2, the binding result in the assay with SARS-Cov-1-RBD-hFc was “no binding”.

B3: 4C5-hFc重组蛋白 (Fc fusion)
chain: EVQLLESGGGLVQPGGSLRLSCAASDFYFADYEMSWVRQAPGKGLEWIGSIYHSGSTYYNPSLKSRVTISRDNSKNTLYLQMNSLRAEDTAMYYCAREWHSGYDYWGQGTLVTVSS
Regarding B3, the “IC50” value in assay [1] turned out to be 2.32 µg/mL.

B4: 4C5噬菌体 (single-domain antibody 4C5 displayed on phage) (VHH)
VHH: EVQLLESGGGLVQPGGSLRLSCAASDFYFADYEMSWVRQAPGKGLEWIGSIYHSGSTYYNPSLKSRVTISRDNSKNTLYLQMNSLRAEDTAMYYCAREWHSGYDYWGQGTLVTVSS
notes: also called 抗体4C5
Take B4: in the assay with SARS-Cov-1-RBD-hFc, the binding result is “no binding”.

B5: 4D5-hFc重组蛋白 (Fc fusion)
chain: EVQLLESGGGLVQPGGSLRLSCAASSFDFSSYEMSWVRQAPGKALEWIGEIHHSGSTYYNPSLKSRVTISRDNSKNTLYLQMNSLRAEDTAMYYCVKDLGFADHWGQGTLVTVSS
Regarding B5, the “IC50” value in assay [1] came out at 1.13 µg/mL.

B6: 4D5噬菌体 (single-domain antibody 4D5 displayed on phage) (VHH)
VHH: EVQLLESGGGLVQPGGSLRLSCAASSFDFSSYEMSWVRQAPGKALEWIGEIHHSGSTYYNPSLKSRVTISRDNSKNTLYLQMNSLRAEDTAMYYCVKDLGFADHWGQGTLVTVSS
notes: also called 抗体4D5
On to B6, for which, in the assay with SARS-Cov-1-RBD-hFc, the binding result is reported as “no binding”.

B7: 4A10-hFc重组蛋白 (Fc fusion)
chain: EVQLLESGGGLVQPGGSLRLSCAASSFDFSDYEMSWVRQAPGKGLEWIGEIHHSGSTYYNPSLKSRVTISRDNSKNTLYLQMNSLRAEDTATYYCVKDFVVGETAEFSYWGQGTLVTVSS
Consider B7, for which, in assay [1], the “IC50” value is 0.66 µg/mL.

B8: 4A10噬菌体 (single-domain antibody 4A10 displayed on phage) (VHH)
VHH: EVQLLESGGGLVQPGGSLRLSCAASSFDFSDYEMSWVRQAPGKGLEWIGEIHHSGSTYYNPSLKSRVTISRDNSKNTLYLQMNSLRAEDTATYYCVKDFVVGETAEFSYWGQGTLVTVSS
notes: also called 抗体4A10
As for B8, the binding result with SARS-Cov-1-RBD-hFc is on record as “no binding”.
